Reference: paper PMC8115264, “Mitofusin-2 stabilizes adherens junctions and suppresses endothelial inflammation via modulation of β-catenin signaling” (Nature Communications, 2021)

Biological target: T1, GFP-Mfn2 (UniProt O95140 1-757)
T1 construct: The construct was generated in the authors' laboratory; also called lentiviral GFP-Mfn2; GFP-tagged Mfn2; source: HLMVECs, lentiviral expression (pWPXL), in lysate
T1 sequence (looked up): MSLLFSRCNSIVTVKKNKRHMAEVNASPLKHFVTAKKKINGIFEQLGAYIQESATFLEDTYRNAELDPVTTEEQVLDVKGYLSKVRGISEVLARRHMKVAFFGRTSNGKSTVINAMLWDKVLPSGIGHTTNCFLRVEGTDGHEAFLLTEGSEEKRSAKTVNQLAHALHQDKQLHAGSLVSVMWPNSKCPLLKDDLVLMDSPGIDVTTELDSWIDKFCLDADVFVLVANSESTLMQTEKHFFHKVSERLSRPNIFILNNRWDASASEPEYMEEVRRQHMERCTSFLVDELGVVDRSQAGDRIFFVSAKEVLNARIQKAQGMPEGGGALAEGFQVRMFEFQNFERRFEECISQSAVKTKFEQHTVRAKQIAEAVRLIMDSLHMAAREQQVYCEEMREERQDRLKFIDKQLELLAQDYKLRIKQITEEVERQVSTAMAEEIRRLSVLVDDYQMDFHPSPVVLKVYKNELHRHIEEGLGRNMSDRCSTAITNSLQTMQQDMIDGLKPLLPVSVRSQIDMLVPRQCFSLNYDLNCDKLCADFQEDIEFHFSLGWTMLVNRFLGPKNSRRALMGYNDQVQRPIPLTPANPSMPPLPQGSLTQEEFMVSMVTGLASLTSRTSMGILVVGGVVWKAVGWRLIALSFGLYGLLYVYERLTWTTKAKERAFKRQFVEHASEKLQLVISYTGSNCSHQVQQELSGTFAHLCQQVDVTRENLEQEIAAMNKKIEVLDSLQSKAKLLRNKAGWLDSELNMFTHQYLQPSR
Assay: co-IP; HLMVECs expressing GFP or GFP-Mfn2, with or without TNFα (10 ng/mL) for 6 h; GFP-Mfn2 immunoprecipitated with GFP-trap magnetic agarose, Western blot for β-catenin and Mfn2
Settings: partners not purified

B1: β-catenin (natural protein, human (endogenous in HLMVECs), UniProt P35222 1-781, looked up)
chain: MATQADLMELDMAMEPDRKAAVSHWQQQSYLDSGIHSGATTTAPSLSGKGNPEEEDVDTSQVLYEWEQGFSQSFTQEQVADIDGQYAMTRAQRVRAAMFPETLDEGMQIPSTQFDAAHPTNVQRLAEPSQMLKHAVVNLINYQDDAELATRAIPELTKLLNDEDQVVVNKAAVMVHQLSKKEASRHAIMRSPQMVSAIVRTMQNTNDVETARCTAGTLHNLSHHREGLLAIFKSGGIPALVKMLGSPVDSVLFYAITTLHNLLLHQEGAKMAVRLAGGLQKMVALLNKTNVKFLAITTDCLQILAYGNQESKLIILASGGPQALVNIMRTYTYEKLLWTTSRVLKVLSVCSSNKPAIVEAGGMQALGLHLTDPSQRLVQNCLWTLRNLSDAATKQEGMEGLLGTLVQLLGSDDINVVTCAAGILSNLTCNNYKNKMMVCQVGGIEALVRTVLRAGDREDITEPAICALRHLTSRHQEAEMAQNAVRLHYGLPVVVKLLHPPSHWPLIKATVGLIRNLALCPANHAPLREQGAIPRLVQLLVRAHQDTQRRTSMGGTQQQFVEGVRMEEIVEGCTGALHILARDVHNRIVIRGLNTIPLFVQLLYSPIENIQRVAAGVLCELAQDKEAAEAIEAEGATAPLTELLHSRNEGVATYAAAVLFRMSEDKPQDYKKRLSVELTSSLFRTEPMAWNETADLGLDIGAQGEPLGYRQDDPSYRSFHSGGYGQDALGMDPMMEHEMGGHHPGADYPVDGLPDLGHAQDLMDGLPPGDSNQLAWFDTDL
notes: β-catenin, endogenous in human lung microvascular endothelial cells; also called beta-catenin; source: endogenous, HLMVEC lysate or fixed HLMVECs
fold increase of the interaction after TNFα against basal: 6 fold
